B1: NEP G714K: single mutant G714K of the human NEP ectodomain (protein, UniProt P08473 52-750, looked up, variant G714K)
extracellular domain: YDDGICKSSDCIKSAARLIQNMDATTEPCTDFFKYACGGWLKRNVIPETSSRYGNFDILRDELEVVLKDVLQEPKTEDIVAVQKAKALYRSCINESAIDSRGGEPLLKLLPDIYGWPVATENWEQKYGASWTAEKAIAQLNSKYGKKVLINLFVGTDDKNSVNHVIHIDQPRLGLPSRDYYECTGIYKEACTAYVDFMISVARLIRQEERLPIDENQLALEMNKVMELEKEIANATAKPEDRNDPMLLYNKMTLAQIQNNFSLEINGKPFSWLNFTNEIMSTVNISITNEEDVVVYAPEYLTKLKPILTKYSARDLQNLMSWRFIMDLVSSLSRTYKESRNAFRKALYGTTSETATWRRCANYVNGNMENAVGRLYVEAAFAGESKHVVEDLIAQIREVFIQTLDDLTWMDAETKKRAEEKALAIKERIGYPDDIVSNDNKLNNEYLELNYKEDEYFENIIQNLKFSQSKQLKKLREKVDKDEWISGAAVVNAFYSSGRNQIVFPAGILQPPFFSAQQSNSLNYGGIGMVIGHEITHGFDDNGRNFNKDGDLVDWWTQQSASNFKEQSQCMVYQYGNFSWDLAGGQHLNGINTLGENIADNGGLGQAYRAYQNYIKKNGEEKLLPGLDLNHKQLFFLNFAQVWCGTYRPEYAVNSIKTDVHSPKNFRIIGTLQNSAEFSEAFHCRKNSYMNPEKKCRVW
modifications: extracellular domain
notes: single mutant G714K of the human NEP ectodomain
B2: NEP G399V: single mutant G399V of the human NEP ectodomain (protein, UniProt P08473 52-750, looked up, variant G399V)
extracellular domain: YDDGICKSSDCIKSAARLIQNMDATTEPCTDFFKYACGGWLKRNVIPETSSRYGNFDILRDELEVVLKDVLQEPKTEDIVAVQKAKALYRSCINESAIDSRGGEPLLKLLPDIYGWPVATENWEQKYGASWTAEKAIAQLNSKYGKKVLINLFVGTDDKNSVNHVIHIDQPRLGLPSRDYYECTGIYKEACTAYVDFMISVARLIRQEERLPIDENQLALEMNKVMELEKEIANATAKPEDRNDPMLLYNKMTLAQIQNNFSLEINGKPFSWLNFTNEIMSTVNISITNEEDVVVYAPEYLTKLKPILTKYSARDLQNLMSWRFIMDLVSSLSRTYKESRNAFRKALYVTTSETATWRRCANYVNGNMENAVGRLYVEAAFAGESKHVVEDLIAQIREVFIQTLDDLTWMDAETKKRAEEKALAIKERIGYPDDIVSNDNKLNNEYLELNYKEDEYFENIIQNLKFSQSKQLKKLREKVDKDEWISGAAVVNAFYSSGRNQIVFPAGILQPPFFSAQQSNSLNYGGIGMVIGHEITHGFDDNGRNFNKDGDLVDWWTQQSASNFKEQSQCMVYQYGNFSWDLAGGQHLNGINTLGENIADNGGLGQAYRAYQNYIKKNGEEKLLPGLDLNHKQLFFLNFAQVWCGTYRPEYAVNSIKTDVHSPGNFRIIGTLQNSAEFSEAFHCRKNSYMNPEKKCRVW
modifications: extracellular domain
notes: single mutant G399V of the human NEP ectodomain

Key:
Type in all cases: biochemical
[1] = system: Angiotensin; assay: Steady-state kinetics of peptide cleavage, fluorescence polarisation; details: substrate Angiotensin; for Km / kcat: 37°C, pH 7.4; for Fold change in kcat/KM: ratio of wild-type NEP kcat/KM to that of the mutant
Experimental: (§1) For detailed kinetic characterisation of peptide cleavage by NEP, a similar assay to that above was used with modifications based on a published method. Peptides were synthesised by Bachem using 9-fluorenylmethyloxycarbonyl solid-phase peptide synthesis and were labelled with a N-terminal 5(6)FAM via a ε-aminocaproic acid linker and a C-terminal biotin via a lysine linker (Table S1). Purified peptides were supplied as trifluoroacetate salts with a purity ≥95%. The assay was performed in a 96-well microtitre plate and contained 50 mM HEPES (pH 7.4), 100 mM NaCl, 0.05% (w/v) BSA (Buffer A), 1–200 µM peptide substrate and 1–500 nM NEP protein. Reactions were incubated at 37°C before being stopped at various time points between 2 and 360 min by transferring 5 µL aliquots to 245 µL Buffer A containing 2 mM 1,10-phenanethroline (Sigma) and 2 µM avidin (Invitrogen). For peptide substrates containing disulphide bonds, 1 mM tris(2-carboxyethyl)phosphine (Thermo Scientific) was added to the stop solution. The fluorescence polarisation of the resulting solution was measured on a Victor plate reader and the amount of substrate cleaved was determined with reference to substrate-only controls with and without avidin. Initial rates were obtained by linear regression of the linear regions of time courses. Enzyme velocity was plotted as a function of substrate concentration and the Michaelis-Menten equation was used to fit the data, giving the parameters kcat and KM.

[2] = system: Aβ1–40; assay: as above; details: for Km / kcat / Fold change in kcat/KM: substrate Aβ 1–40; for Km / kcat: 37°C, pH 7.4; for Fold change in kcat/KM: ratio of wild-type NEP kcat/KM to that of the mutant; for increase in kcat/KM (catalytic efficiency) on Aβ1–40 over wild-type NEP: substrate Aβ1–40, relative to wild-type NEP
Experimental: as §1

[3] = system: Bradykinin; assay: as above; details: substrate Bradykinin; for Km / kcat: 37°C, pH 7.4; for Fold change in kcat/KM: ratio of wild-type NEP kcat/KM to that of the mutant
Experimental: as §1

[4] = system: Glucagon; assay: as above; details: substrate Glucagon; for Km / kcat: 37°C, pH 7.4; for Fold change in kcat/KM: ratio of wild-type NEP kcat/KM to that of the mutant
Experimental: as §1

[5] = system: Neurotensin; assay: as above; details: substrate Neurotensin; for Km / kcat: 37°C, pH 7.4; for Fold change in kcat/KM: ratio of wild-type NEP kcat/KM to that of the mutant
Experimental: as §1

[6] = system: Aβ1–40 or 1–42 and eight off-target peptides; assay: High-throughput fluorescence polarisation screen of NEP variants; details: high throughput screening, relative to wild-type
Experimental: To screen NEP variants for improved activity on and specificity towards Aβ a high-throughput assay was developed where cleavage activity on Aβ1–40 or 1–42 and eight off-target peptides (see Table S1) was determined by fluorescence polarisation. Peptide substrates were labelled with DY-505 or DY-647 at the N-terminus and biotin at the C-terminus. The biotin serves for increasing the molecular size of uncleaved peptides after addition of strepavidin, thereby increasing the assay window and measurable signals. Peptide cleavage assays were performed by incubating NEP variant samples in a microtitre plate containing assay solution composed of 60 nM peptide substrate in 50 mM HEPES (pH 7.4) containing 150 mM NaCl and 0.05% Pluronic F-68 (Sigma). […] The extent of peptide cleavage was determined by measuring the fluorescence polaristion of the stopped reactions on a plate reader (Tecan) with an appropriate set up of polarisation filters. […]
To rank these variants the change in activity on the Aβ1–40 peptide was divided by the average change in specificity on the other peptides and then by the specificity of the wild-type enzyme. […] At many other positions only a single amino acid substitution was detected as having improved specificity, and some of these provided the largest gains observed. […]

Molecule	Km [1] [µM]	kcat [1] [s⁻¹]	Fold change in kcat/KM [1]	Km [2] [µM]	kcat [2] [s⁻¹]	Fold change in kcat/KM [2]	increase in kcat/KM (catalytic efficiency) on Aβ1–40 over wild-type NEP [2] [fold]	Km [3] [µM]	kcat [3] [s⁻¹]	Fold change in kcat/KM [3]	Km [4] [µM]	kcat [4] [s⁻¹]	Fold change in kcat/KM [4]	Km [5] [µM]	kcat [5] [s⁻¹]	Fold change in kcat/KM [5]	improvement in specificity ([6]; activity on Aβ1–40 relative to other peptides)	improvement in activity on Aβ [6] [fold]
B1	18 ± 1	12 ± 0.3	1.5	42 ± 0.7	1.9 ± 0.2	0.18	~6	120 ± 8	7.4 ± 0.3	7.5	42 ± 5	5.2 ± 0.3	1.5	10 ± 0.7	8.6 ± 0.2	0.98	approximately 12 fold	~7
B2	3.6 ± 0.4	0.73 ± 0.03	4.6	55 ± 7	2.7 ± 0.2	0.16	~6	79 ± 10	0.15 ± 0.01	250	20 ± 2	2.9 ± 0.1	1.2	12 ± 1	1.1 ± 0.04	8.2		

Source: paper PMC4121237, “Engineering Neprilysin Activity and Specificity to Create a Novel Therapeutic for Alzheimer’s Disease” (PLoS ONE, 2014)
